Consider two molecules from publication PMC9433323, “R-loop formation and conformational activation mechanisms of Cas9”.

Data set [1] concerns the target T1, SpCas9 wild type (Streptococcus pyogenes, UniProt Q99ZW2 1-1368). The data set can be described thus: cryo-EM; 1 mM Mg2+; checkpoint state; SEC binding: 20 mM HEPES-KOH pH 7.5, 200 mM KCl, 2 mM MgCl2, room temperature, 371 pmol dCas9, 400 pmol sgRNA, 250 pmol DNA; crystal complex: 20 mM HEPES-KOH pH 7.5, 250 mM KCl, 1 mM DTT, crystals at 20 C. The note with it: protein: recombinant; tags: His6-MBP-TEV tag removed by TEV protease; sgRNA strand 1; TS/NTS duplex with internal mismatched region; 18 nt guide-TS complementarity.

In data set [2] the target is T1, SpCas9 wild type. The data set can be described thus: cryo-EM; 10 mM Mg2+; catalytically active state, TS and NTS cleaved; SEC binding: 20 mM HEPES-KOH pH 7.5, 200 mM KCl, 2 mM MgCl2, room temperature, 371 pmol dCas9, 400 pmol sgRNA, 250 pmol DNA; crystal complex: 20 mM HEPES-KOH pH 7.5, 250 mM KCl, 1 mM DTT, crystals at 20 C. The note with it: protein: recombinant; tags: His6-MBP-TEV tag removed by TEV protease; sgRNA strand 1; TS/NTS duplex with internal mismatched region; 18 nt guide-TS complementarity; both DNA strands cleaved in structure.

T1 sequence (Q99ZW2 whole entry): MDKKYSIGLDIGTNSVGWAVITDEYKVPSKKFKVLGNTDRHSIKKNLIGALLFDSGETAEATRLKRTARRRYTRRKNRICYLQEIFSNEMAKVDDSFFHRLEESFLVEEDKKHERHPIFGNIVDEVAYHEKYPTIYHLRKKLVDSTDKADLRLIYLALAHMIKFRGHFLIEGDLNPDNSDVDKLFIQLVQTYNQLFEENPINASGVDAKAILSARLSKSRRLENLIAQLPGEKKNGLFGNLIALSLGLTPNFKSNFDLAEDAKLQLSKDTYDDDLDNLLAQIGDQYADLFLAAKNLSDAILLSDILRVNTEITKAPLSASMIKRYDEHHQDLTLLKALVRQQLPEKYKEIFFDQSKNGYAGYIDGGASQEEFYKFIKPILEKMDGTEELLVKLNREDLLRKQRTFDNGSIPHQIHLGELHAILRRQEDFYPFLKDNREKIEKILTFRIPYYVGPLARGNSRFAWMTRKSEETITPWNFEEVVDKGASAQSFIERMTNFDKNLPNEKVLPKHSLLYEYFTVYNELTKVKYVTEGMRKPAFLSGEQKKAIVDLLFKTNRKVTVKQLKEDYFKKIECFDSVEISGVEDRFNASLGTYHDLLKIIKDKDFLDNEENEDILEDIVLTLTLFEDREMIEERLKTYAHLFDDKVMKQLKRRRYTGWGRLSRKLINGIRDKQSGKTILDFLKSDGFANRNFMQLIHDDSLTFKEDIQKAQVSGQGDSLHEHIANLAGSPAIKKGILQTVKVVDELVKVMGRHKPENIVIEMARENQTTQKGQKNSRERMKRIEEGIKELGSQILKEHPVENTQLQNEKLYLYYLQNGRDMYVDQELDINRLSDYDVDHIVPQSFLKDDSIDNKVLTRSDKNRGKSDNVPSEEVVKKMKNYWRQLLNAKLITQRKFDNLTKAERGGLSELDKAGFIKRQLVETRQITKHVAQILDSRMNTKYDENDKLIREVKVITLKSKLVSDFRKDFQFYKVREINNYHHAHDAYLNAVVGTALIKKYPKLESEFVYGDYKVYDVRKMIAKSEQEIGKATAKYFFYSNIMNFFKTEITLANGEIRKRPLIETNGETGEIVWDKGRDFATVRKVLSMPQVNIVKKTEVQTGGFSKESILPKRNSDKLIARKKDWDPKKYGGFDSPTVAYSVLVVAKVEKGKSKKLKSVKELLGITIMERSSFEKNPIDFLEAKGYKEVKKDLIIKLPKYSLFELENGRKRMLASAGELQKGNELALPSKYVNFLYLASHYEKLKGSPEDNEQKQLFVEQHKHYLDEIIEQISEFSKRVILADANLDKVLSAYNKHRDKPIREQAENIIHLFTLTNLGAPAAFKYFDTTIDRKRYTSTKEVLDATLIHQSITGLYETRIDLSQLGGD

B1: 18-nt match checkpoint: λ1 sgRNA (3-stem loop) / TS / NTS (mixed)
RNA: GACGCAUAAAGAUGAGACGCGUUUUAGAGCUAGAAAUAGCAAGUUAAAAUAAGGCUAGUCCGUUAUCAACUUGAAAAAGUGGCACCGAGUCGGUGCUUUU
DNA 1: CGTGATTCCAGCGTCTCATCTTTATGCGAGTGTACTCG
DNA 2: CGAGTACACTATTGCGGGACGCTATTATTGGAATCACG
As to B1, the binding result with SpCas9 wild type [1] is given as “binds”.

B2: 18-nt match catalytic: λ1 sgRNA (3-stem loop) / TS / NTS (mixed)
RNA: GACGCAUAAAGAUGAGACGCGUUUUAGAGCUAGAAAUAGCAAGUUAAAAUAAGGCUAGUCCGUUAUCAACUUGAAAAAGUGGCACCGAGUCGGUGCUUUU
DNA 1: CGTGATTCCAGCGTCTCATCTTTATGCGAGTGTACTCGTCTTGC
DNA 2: GCAAGACGAGTACACTCGCATAAAACGCTATTATTGGAATCACG
For the molecule B2, in the data set with SpCas9 wild type [2], the binding result is recorded as “binds”.
